Measurements published in patent US20060252678A1.

Target: mouse LSR (lipolysis stimulated receptor) (mouse) (UniProt Q99KG5)
Test: cell-based or functional assay

UniProt Q99KG5, sequence (Q99KG5 36-594): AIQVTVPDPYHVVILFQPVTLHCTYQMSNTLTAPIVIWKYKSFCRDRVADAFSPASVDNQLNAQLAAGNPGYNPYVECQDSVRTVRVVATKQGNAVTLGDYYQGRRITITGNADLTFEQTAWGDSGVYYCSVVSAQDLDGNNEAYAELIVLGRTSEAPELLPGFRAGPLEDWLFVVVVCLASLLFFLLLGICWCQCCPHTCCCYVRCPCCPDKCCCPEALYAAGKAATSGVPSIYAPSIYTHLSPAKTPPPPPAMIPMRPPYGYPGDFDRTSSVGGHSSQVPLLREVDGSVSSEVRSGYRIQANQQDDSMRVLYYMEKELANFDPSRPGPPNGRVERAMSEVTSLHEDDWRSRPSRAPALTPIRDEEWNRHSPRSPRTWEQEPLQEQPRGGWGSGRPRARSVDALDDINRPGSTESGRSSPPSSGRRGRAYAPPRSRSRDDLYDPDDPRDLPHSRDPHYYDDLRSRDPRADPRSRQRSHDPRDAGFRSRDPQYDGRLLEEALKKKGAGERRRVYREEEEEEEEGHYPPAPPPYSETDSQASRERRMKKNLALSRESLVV

Question: How did the cell-associated 125I-leptin in BPRCL mouse liver cells after pre-incubation with increasing AdipoQ (AQ) or globular AdipoQ (AQ-GH) turn out when “125I-mouse leptin (from UniProt P41160 22-167) (ligand)” was run?
Answer: Its cell-associated 125I-leptin in BPRCL mouse liver cells after pre-incubation with increasing AdipoQ (AQ) or globular AdipoQ (AQ-GH) is over 30%.
